Results on three molecules are retold here after PMC6974248, ““Yellow” laccase from Sclerotinia sclerotiorum is a blue laccase that enhances its substrate affinity by forming a reversible tyrosyl-product adduct” (PLoS ONE, 2020).

In series [1] the target is T1, blue laccase (Sclerotinia sclerotiorum, UniProt A7EM18).
T1 construct: gene SS1G_06365; native, secreted, purified from culture medium; ~66 kDa glycoprotein; blue form (phenolics removed by preparative native PAGE or low-coloured medium)
T1 sequence (A7EM18 28-577): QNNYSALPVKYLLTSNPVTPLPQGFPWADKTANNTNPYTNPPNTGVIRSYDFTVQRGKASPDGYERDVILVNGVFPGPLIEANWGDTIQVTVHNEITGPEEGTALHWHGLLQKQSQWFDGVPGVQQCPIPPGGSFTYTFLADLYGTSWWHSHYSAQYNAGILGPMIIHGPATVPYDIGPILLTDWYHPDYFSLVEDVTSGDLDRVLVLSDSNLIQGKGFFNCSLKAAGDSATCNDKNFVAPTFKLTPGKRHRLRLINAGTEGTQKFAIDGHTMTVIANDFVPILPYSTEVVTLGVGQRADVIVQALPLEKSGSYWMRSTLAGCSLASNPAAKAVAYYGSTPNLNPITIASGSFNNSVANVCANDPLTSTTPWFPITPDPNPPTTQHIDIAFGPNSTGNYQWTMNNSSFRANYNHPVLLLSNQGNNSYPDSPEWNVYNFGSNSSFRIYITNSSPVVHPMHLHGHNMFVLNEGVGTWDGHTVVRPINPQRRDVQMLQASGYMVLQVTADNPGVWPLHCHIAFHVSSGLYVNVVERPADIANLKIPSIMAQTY
The experiment in a line: UV-vis after desalting. The format is binding. Particulars: covalent, adduct of the radical product formed on turnover, site not identified; 25 mM MES pH 6.3.

Substrate in series [2]: Cc1cc(-c2cc(C)c(N)c(C)c2)cc(C)c1N
In words: purified protein. The format is biochemical, Sclerotinia sclerotiorum. As to conditions: 50 mM acetate pH 4, relative SD 5–20%.

Substrate in series [3]: CCn1c(=NN=c2sc3cc(S(=O)(=O)O)ccc3n2CC)sc2cc(S(=O)(=O)O)ccc21
In words: purified protein. As to conditions: 50 mM acetate pH 4, relative SD 5–20%. The format is biochemical, Sclerotinia sclerotiorum.

As usually defined, the Km is the substrate concentration at which the rate is half of its maximum. As a reminder, the kcat is the maximal rate divided by the concentration of active sites.

As to `COc1ccccc1O` [guaiacol], the UV-vis after desalting result in series [1] was “purple with ABTS, red with guaiacol, orange with TMB”.
On the same count and under the same terms, the same measure for `Cc1cc(-c2cc(C)c(N)c(C)c2)cc(C)c1N` [TMB, 3,3’,5,5’-tetramethylbenzidine]: “purple with ABTS, red with guaiacol, orange with TMB”.

B1: yellow laccase (Sclerotinia sclerotiorum 1980 UF-70) (protein)
chain: T1 sequence (A7EM18 28-577)
notes: native, secreted, purified from culture medium; ~66 kDa; as-isolated yellow form, natural covalent phenolic adduct of the same protein as P1
In the case of B1, in series [2], the Km was 2.70 µM and the kcat is 3.1 s⁻¹. Further, in series [3], the Km stood at 14.1 µM and the kcat stood at 5.7 s⁻¹.
